# Test results taken from paper PMC5522039, “Non-invasive assessment of murine PD-L1 levels in syngeneic tumor models by nuclear imaging with nanobody tracers” (Oncotarget, 2017).
# Legend:
# [1] = biological target: T1, Mouse PD-L1 Fc-fusion protein (R&D Systems, 1019-B7) (Mus musculus, UniProt Q9EP73); experiment: SPR; Biacore T200, 25°C, HBS (0.01 M HEPES pH 7.4, 0.15 M NaCl, 3 mM EDTA, 0.005% Tween 20); mouse or human PD-L1 Fc-fusion protein amine-coupled on a CM5 chip (650-900 RU); Nb in crude periplasmic extract as analyte, its concentration estimated by CFCA; 9 dilutions, 120 s association, 160 s dissociation; 1-to-1 fit; affinity estimations; conditions: one partner purified
# T1 construct: programmed death-ligand 1 (PD-L1, B7-H1, CD274), mouse; also called moPD-L1; B7-H1; source: bought: R&D Systems (1019-B7)
# T1 sequence (Q9EP73 19-239): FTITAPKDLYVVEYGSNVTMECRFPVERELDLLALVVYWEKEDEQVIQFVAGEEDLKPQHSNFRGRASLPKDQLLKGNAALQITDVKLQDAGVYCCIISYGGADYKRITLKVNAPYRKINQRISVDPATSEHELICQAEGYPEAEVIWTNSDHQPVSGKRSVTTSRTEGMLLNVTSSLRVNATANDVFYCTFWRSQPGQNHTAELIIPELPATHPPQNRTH
# [2] = biological target: T2, Human PD-L1 Fc-fusion protein (R&D Systems, 156-B7) (Homo sapiens, UniProt Q9NZQ7); experiment: as above; conditions: one partner purified
# T2 construct: programmed death-ligand 1 (PD-L1, B7-H1, CD274), human; also called huPD-L1; B7-H1; source: bought: R&D Systems (156-B7)
# T2 sequence (Q9NZQ7 19-238): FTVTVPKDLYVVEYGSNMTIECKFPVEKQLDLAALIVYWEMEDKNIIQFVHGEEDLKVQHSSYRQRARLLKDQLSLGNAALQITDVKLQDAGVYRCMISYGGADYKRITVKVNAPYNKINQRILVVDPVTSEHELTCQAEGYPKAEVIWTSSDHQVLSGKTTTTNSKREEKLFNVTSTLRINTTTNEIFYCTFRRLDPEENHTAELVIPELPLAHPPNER
Kd [1],Kd [2],Binder
2.3 nM,12 nM,"Nb E1 (HA-tagged, in periplasmic extract) (VHH, source: E. coli WK6 (pHEN4), crude periplasmic extract) VHH: QVQLQESGGGLVQAGGSLRLSCATSGSIFSIISMGWYRQAPGKQRELVALVFRGGSTVYADSVKGRFTISGDIAKNTVYLQMDSLKPEDTAVYYCNVKSIGTAQYWGQGTQVTVSS"
14 nM,54 nM,"Nb E5 (HA-tagged, in periplasmic extract) (VHH, source: E. coli WK6 (pHEN4), crude periplasmic extract) VHH: QVQLQESGGGLVQPGGSLRLSCATSGSIFSIISMGWYRQAPGKQRELVALVFRGGSTVYADSVKGRFTISGDIAKSTVYLQMDSLKPEDTAVYYCNAKPIGTAQYWGQGTQVTVSS"
6.9 nM,217 nM,"Nb E6 (HA-tagged, in periplasmic extract) (VHH, source: E. coli WK6 (pHEN4), crude periplasmic extract) VHH: QVQLQESGGGLVQAGGSLRLSCATSGSIFSIISMGWYRQAPGKQRELVALVFRGGSTVYADSVKGRFTISGDIAKSTVYLQMDSLKPEDTAVYYCNAKPIGTAQYWGQGTQVTVSS"
5.6 nM,94 nM,"Nb E2 (HA-tagged, in periplasmic extract) (VHH, source: E. coli WK6 (pHEN4), crude periplasmic extract) VHH: QVQLQESGGGLVQAGGSLRLSCATSGSIFSIISMGWYRQAPGKQRELVALVFRGGSTVYADSVKGRFTISGDIAKNTVYLQMDSLKPEDTAVYYCNVKSIGTAQYWGQGTQITVSS"
3.9 nM,16 nM,"Nb G5 (HA-tagged, in periplasmic extract) (VHH, source: E. coli WK6 (pHEN4), crude periplasmic extract) VHH: QVQLQESGGGLVQPGGSLRLSCAASGSFFRTYIVSWYRQAPGKRREAVAVMSNSGNTNYADSVKGRFTISRDNAVNTVYLQMNSLKPEDTAVYYCNLLKVTVPPANYWGQGTQVTVSS"
3.4 nM,129 nM,"Nb G7 (HA-tagged, in periplasmic extract) (VHH, source: E. coli WK6 (pHEN4), crude periplasmic extract) VHH: QVQLQESGGGLVQSGGSLRLSCAASGSFFRTYIVSWYRQAPGKRREAVAVMSNSGNTNYADSVKGRFTISRDNAVNTVYLQMNSLKPEDTAVYYCNLLKVTVPPANYWGQGTQVTVSS"
5 nM,21 nM,"Nb G6 (HA-tagged, in periplasmic extract) (VHH, source: E. coli WK6 (pHEN4), crude periplasmic extract) VHH: QVQLQESGGGLVQPGESLRLSCVASGSFFRTYIVSWYRQAPGKRREAVAVMSNSGNTNYADSVKGRFTISRDNAVNTVYLQMNSLKPEDTAVYYCNLLKVTVPPANYWGQGTQVTVSS"
12 nM,291 nM,"Nb D1 (HA-tagged, in periplasmic extract) (VHH, source: E. coli WK6 (pHEN4), crude periplasmic extract) VHH: QVQLQESGGGLVQAGGSLRLSCAASGITVSINAMAWYRQPPGKQRELVALIIGGSTRYADSVKGRFTISRDNAKNTVYLQMNSLKPEDTAVYACNTRAYWGQGTQVTVSS"
6.5 nM,335 nM,"Nb C15 (HA-tagged, in periplasmic extract) (VHH, source: E. coli WK6 (pHEN4), crude periplasmic extract) VHH: QVQLQESGGGLVQTGGSLRVSCAVSGSTVSRSTMAWWRQTPGNQRELVALVDSGGKSNYVDSVKGRFTISTDNAKNTMYLQMNSLKPEDTAVYYCRILSVQGIWYWGQGTQVTVSS"
15 nM,520 nM,"Nb C16 (HA-tagged, in periplasmic extract) (VHH, source: E. coli WK6 (pHEN4), crude periplasmic extract) VHH: QVQLQESGGGLVQAGGSLKVSCAVSGSTVSSSTMAWWRQTPGNQRELVALVDSGGKSNYVDSVKGRFTISTDNAKNTMYLQMNSLKPEDTAVYYCRILSVKGIWYWGQGTQVTVSS"
123 nM,6 nM,"Nb B1 (HA-tagged, in periplasmic extract) (VHH, source: E. coli WK6 (pHEN4), crude periplasmic extract) VHH: QVQLQESGGGLVHPGGSLRLSCAASGFSLDNYAIGWFRQAPGKEREGVSCISSGSEGRRYYADFVKGRFTISRDNAKNTAFLQMNSLKPEDTADYYCATVGFCSSQYGMEFVGDYWGQGTQVTVSS"
4.4 nM,50 nM,"Nb G1 (HA-tagged, in periplasmic extract) (VHH, source: E. coli WK6 (pHEN4), crude periplasmic extract) VHH: QVQLQESGGGLVQPGGSLRLSCAASGSISSFNFMGWYRQAPGKQRELVALSTNSGVTNVAGSVKGRFTISRDNAKTTVYLQMNSLKPEDTAVYYCRVGAMGNLYWGQGTQVTVSS"
5.5 nM,158 nM,"Nb G2 (HA-tagged, in periplasmic extract) (VHH, source: E. coli WK6 (pHEN4), crude periplasmic extract) VHH: QVQLQESGGGLVQPGGSLRLSCVASGSISSFNFMGWYRQAPGKQRELVALSTNSGVTNVAGSVKGRFTISRDNAKTTVYLQMNSLKPEDTAVYYCRVGAMGNLYWGQGTQVTVSS"
5 nM,907 nM,"Nb G3 (HA-tagged, in periplasmic extract) (VHH, source: E. coli WK6 (pHEN4), crude periplasmic extract) VHH: QVQLQESGGGLVQTGGSLRLSCAASGSISSFNFMGWYRQAPGKQRELVALSTNSGVTNVAGSVKGRFTISRDNAKTTVYLQMNSLKPEDTAVYYCRVGAMGNLYWGQGTQVTVSS"
6.2 nM,74 nM,"Nb G4 (HA-tagged, in periplasmic extract) (VHH, source: E. coli WK6 (pHEN4), crude periplasmic extract) VHH: QVQLQESGGGLVQAGGSLRLSCAASGSISSFNFMGWYRQAPGKQRELVALSTNSGVTNVAGSVKGRFTISRDNAKTTVYLQMNSLKPEDTAVYYCRVGAMGNLYWGQGTQVTVSS"
3.1 nM,27 nM,"Nb C7 (HA-tagged, in periplasmic extract) (VHH, source: E. coli WK6 (pHEN4), crude periplasmic extract) VHH: QVQLQESGGGSVQAGESLTLSCTASGSSLSHKSVGWWRQTPGNQRELVALVASGNNTNYVDSVKGRFTVSRDNAKNTMYLQMNSLKPEDTAVYYCRILSVNGIWYWGQGTQVTVSS"
–,23 nM,"Nb A1 (HA-tagged, in periplasmic extract) (VHH, source: E. coli WK6 (pHEN4), crude periplasmic extract) VHH: QVQLQESGGGLVQPGGSLRLSCAASGFTLDYYAIGWFRQAPGKEREGVSCISSSDGSTYYADSVKGRFTISRDNAKNTVYLQMSSLKPEDTAVYYCGISGSCLLEDYGMDYWGKGTQVTVSS"
67 nM,322 nM,"Nb I1 (HA-tagged, in periplasmic extract) (VHH, source: E. coli WK6 (pHEN4), crude periplasmic extract) VHH: QVQLQESGGGLVQAGGSLRLSCAASGRTFRRYDMGWFRQAPGKEREFVAASTWSADDTYYAGSVKGRFTISRDNAKNTVYLQMNSLKPEDTAVYYCAAGETRKYGFRTTEGYYDSWGQGTQVTVSS"
15 nM,34 nM,"Nb L1 (HA-tagged, in periplasmic extract) (VHH, source: E. coli WK6 (pHEN4), crude periplasmic extract) VHH: VQAGGSLRLSCAASGYRYCRYDMSWYRQAPGKEREFVSAIDSYGSPTYADTVLGRFTISRDNAKNTVYLQMNSLKAEDTAMYYCKIDSTGWSSRCGKTYWGQGTQVTVSS"
0.289 nM,94 nM,"Nb C6 (HA-tagged, in periplasmic extract) (VHH, source: E. coli WK6 (pHEN4), crude periplasmic extract) VHH: QVQLQESGGGLVQAGDSLRLSCAASGSTVSSSMMAWWRQTPGNQRELVALVASGNNTNYVDSVKGRFTVSRDNAKNTMYLQMNSLKPEDTAVYYCRILSVNGIWYWGQGTQVTVSS"
1.8 nM,71 nM,"Nb C14 (HA-tagged, in periplasmic extract) (VHH, source: E. coli WK6 (pHEN4), crude periplasmic extract) VHH: QVQLQESGGGLVQTGGSLRLSCAASGSTVGSSTMAWWRQTPGNQRELVALVGLGGNTNYVDSVKGRFTVSIDNAENTMYLQMNSLKFEDTAVYYCRILSVNGIWYWGQGTQVTVSS"
0.14 nM,32 nM,"Nb C3 (HA-tagged, in periplasmic extract) (VHH, source: E. coli WK6 (pHEN4), crude periplasmic extract) VHH: QVQLQESGGGLVQTGGSLRLSCAASGSTVSSSMMAWWRQTPGNQRELVALVASGNNTNYVDSVKGRFTVSRDNAKNTMYLQMNSLKPEDTAVYYCRILSVNGIWYWGQGTQVTVSS"
2.2 nM,44 nM,"Nb C9 (HA-tagged, in periplasmic extract) (VHH, source: E. coli WK6 (pHEN4), crude periplasmic extract) VHH: QVQLQESGGGLVQAGESLRLSCAGSGSTVSSSTMAWWRQTPGNQRELVALVASGGNTNYVDSVKGRFTVSRDNAKNTMYLQMNSLKPEDTAVYYCRILSMNGIWYWGQGTQVTVSS"
6.7 nM,141 nM,"Nb C10 (HA-tagged, in periplasmic extract) (VHH, source: E. coli WK6 (pHEN4), crude periplasmic extract) VHH: QVQLQESGGGLVQTGGSLRLSCAASGSTVSSSTMAWWRQTPGNQRELVALVASGGNTNYVDSVKGRFTVSRDNAKNTMYLQMNSLKPEDTAVYYCRILSMNGIWYWGQGTQVTVSS"
12 nM,246 nM,"Nb C11 (HA-tagged, in periplasmic extract) (VHH, source: E. coli WK6 (pHEN4), crude periplasmic extract) VHH: QVQLQESGGGLVQTGGSLRLSCAASGSTVSSSTMAWWRQTPGNQRELVALVASGGNTNYVDSVKGRFTVSRDNAKNTMYLQMNSLKPEDTAVYYCRILSVNGIWYWGQGTQVTVSS"
11.4 nM,181 nM,"Nb C12 (HA-tagged, in periplasmic extract) (VHH, source: E. coli WK6 (pHEN4), crude periplasmic extract) VHH: QVQLQESGGGLVQTGGSLRLSCAASGSTVSSSTMAWWRQTPGNQRELVALVASGGNTNYVDSVKGRFTVSRDNAKNTMYLQMNSLKAEDTAVYYCRILSVNGIWYWGQGTQVTVSS"
0.327 nM,143 nM,"Nb C1 (HA-tagged, in periplasmic extract) (VHH, source: E. coli WK6 (pHEN4), crude periplasmic extract) VHH: QVQLQESGGGLVQTGGSLRLSCAASGSTVSSSMMAWWRQTPGNQRELVALVARGNNTNYVDSVKGRFTVSRDNAKNTMYLQMNSLKPEDTAVYYCRILSVNGIWYWGQGTQVTVSS"
33 nM,162 nM,"Nb C13 (HA-tagged, in periplasmic extract) (VHH, source: E. coli WK6 (pHEN4), crude periplasmic extract) VHH: QVQLQESGGGLVQTGGSLRLSCAASGSTVSSSTMAWYRQTPGNQRDLVALVGSGGNINYVDSVKGRFTVSIDNAKNTMYLQMNSLKPEDTAVYYCRILSVNGIWYWGQGTQVTVSS"
13 nM,17 nM,"Nb M1 (HA-tagged, in periplasmic extract) (VHH, source: E. coli WK6 (pHEN4), crude periplasmic extract) VHH: VQAGDSLRLACTLFKYPTNNLCLAWFRQAPGKEREGVAALNTDGVGTYYAKSVEGRFTISQDKSKNEGYLQMDNLKPEDTAIYYCAADPTSRCNNYVQGRWWHEIGSRVWDWGQGTQVTVSS"
